According to paper PMC6547726, “Advanced FRET normalization allows quantitative analysis of protein interactions including stoichiometries and relative affinities in living cells” (Scientific Reports, 2019):

What was measured:
YFP-p65 = YFP-p65 (UniProt Q04206); test: FRET or BRET; 3-filter FRET by flow cytometry (CYTOFLEX S) of living transfected HeLa cells, five plasmid ratios; DFRET of single cells fitted to a law-of-mass-action model (Ka^app apparent, z, FRETmax)
YFP-tagged IKKα = molecular target: T1, YFP-tagged IKKα (UniProt O15111 1-745); test: as above; details: partners not purified
T1 construct: IKKα, IKK subunit α of the NF-kappaB pathway; FRET donor; also called IKK subunit α; source: HeLa cells (clone ACC 57), transfected, in living cells
T1 sequence (looked up): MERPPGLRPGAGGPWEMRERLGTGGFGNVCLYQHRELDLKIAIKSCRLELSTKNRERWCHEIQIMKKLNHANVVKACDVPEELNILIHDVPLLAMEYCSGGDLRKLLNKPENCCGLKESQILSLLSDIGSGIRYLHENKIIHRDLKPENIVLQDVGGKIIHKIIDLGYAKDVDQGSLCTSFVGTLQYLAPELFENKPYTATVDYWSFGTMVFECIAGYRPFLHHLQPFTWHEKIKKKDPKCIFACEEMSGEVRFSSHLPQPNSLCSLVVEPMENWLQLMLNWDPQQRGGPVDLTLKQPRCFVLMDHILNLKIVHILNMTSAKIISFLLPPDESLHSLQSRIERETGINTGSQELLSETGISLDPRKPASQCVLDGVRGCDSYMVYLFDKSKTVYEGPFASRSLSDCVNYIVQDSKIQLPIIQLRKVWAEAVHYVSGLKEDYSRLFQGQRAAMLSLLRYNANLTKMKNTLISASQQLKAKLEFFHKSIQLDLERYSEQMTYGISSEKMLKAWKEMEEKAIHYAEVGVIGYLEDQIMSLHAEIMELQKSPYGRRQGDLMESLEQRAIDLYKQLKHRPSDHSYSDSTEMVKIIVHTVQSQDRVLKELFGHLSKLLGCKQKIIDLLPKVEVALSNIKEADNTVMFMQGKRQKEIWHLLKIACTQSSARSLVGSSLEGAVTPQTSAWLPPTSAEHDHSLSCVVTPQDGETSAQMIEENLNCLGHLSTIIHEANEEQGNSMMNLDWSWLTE

Sequence of YFP-p65 (Q04206 whole entry): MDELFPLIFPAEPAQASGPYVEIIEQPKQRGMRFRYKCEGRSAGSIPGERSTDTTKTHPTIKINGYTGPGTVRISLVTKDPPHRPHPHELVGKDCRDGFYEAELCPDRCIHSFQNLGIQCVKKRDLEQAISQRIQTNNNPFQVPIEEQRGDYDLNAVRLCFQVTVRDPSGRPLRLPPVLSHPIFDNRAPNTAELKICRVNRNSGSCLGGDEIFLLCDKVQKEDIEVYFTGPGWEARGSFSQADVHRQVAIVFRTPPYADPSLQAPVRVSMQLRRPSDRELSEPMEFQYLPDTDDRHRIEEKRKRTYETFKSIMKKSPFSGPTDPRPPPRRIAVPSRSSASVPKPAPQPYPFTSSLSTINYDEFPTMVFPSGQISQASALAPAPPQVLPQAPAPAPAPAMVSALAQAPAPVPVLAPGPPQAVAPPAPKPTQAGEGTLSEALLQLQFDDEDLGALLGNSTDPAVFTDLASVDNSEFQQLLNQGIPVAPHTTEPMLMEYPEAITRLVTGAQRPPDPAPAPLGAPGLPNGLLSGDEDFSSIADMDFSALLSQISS

IκB-mCherry (from UniProt P25963 1-317) (natural protein)
stoichiometry N (acceptor (IκB) per donor (p65)) (YFP-p65): 0.5

B1: mCherry-tagged IKKβ (natural protein, UniProt O14920 1-756, looked up)
chain: MSWSPSLTTQTCGAWEMKERLGTGGFGNVIRWHNQETGEQIAIKQCRQELSPRNRERWCLEIQIMRRLTHPNVVAARDVPEGMQNLAPNDLPLLAMEYCQGGDLRKYLNQFENCCGLREGAILTLLSDIASALRYLHENRIIHRDLKPENIVLQQGEQRLIHKIIDLGYAKELDQGSLCTSFVGTLQYLAPELLEQQKYTVTVDYWSFGTLAFECITGFRPFLPNWQPVQWHSKVRQKSEVDIVVSEDLNGTVKFSSSLPYPNNLNSVLAERLEKWLQLMLMWHPRQRGTDPTYGPNGCFKALDDILNLKLVHILNMVTGTIHTYPVTEDESLQSLKARIQQDTGIPEEDQELLQEAGLALIPDKPATQCISDGKLNEGHTLDMDLVFLFDNSKITYETQISPRPQPESVSCILQEPKRNLAFFQLRKVWGQVWHSIQTLKEDCNRLQQGQRAAMMNLLRNNSCLSKMKNSMASMSQQLKAKLDFFKTSIQIDLEKYSEQTEFGITSDKLLLAWREMEQAVELCGRENEVKLLVERMMALQTDIVDLQRSPMGRKQGGTLDDLEEQARELYRRLREKPRDQRTEGDSQEMVRLLLQAIQSFEKKVRVIYTQLSKTVVCKQKALELLPKVEEVVSLMNEDEKTVVRLQEKRQKELWNLLKIACSKVRGPVSGSPDSMNASRLSQPGQLMSQPSTASNSLPEPAKKSEELVAEAHNLCTLLENAIQDTVREQDQSFTALDWSWLQTEEEEHSCLEQAS
notes: IKKβ, IKK subunit β of the NF-kappaB pathway; FRET acceptor; also called IKK subunit β; source: HeLa cells (clone ACC 57), transfected, in living cells
stoichiometry N (YFP-tagged IKKα): ~1 acceptor (IKKβ) per donor (IKKα)
